{"source": "paper PMC4144780", "about": "“MSRB7 reverses oxidation of GSTF2/3 to confer tolerance of Arabidopsis thaliana to oxidative stress” (Journal of Experimental Botany, 2014)", "key": {"oxidized His–GSTF2": {"biological_target": "T1, oxidized His–GSTF2 (A. thaliana, UniProt P46422 1-212, oxidized (positions not stated for this sample))", "T1 construct": "Glutathione S-transferase F2 (GSTF2), A. thaliana, locus At4g02520; cloned into pET-53-DEST; How it was oxidized is told only for the activity assay (0.5 mM HOCl, 40 min, stopped with 5 mM Met); also called recombinant GSTF2; MetO–GSTF2", "T1 sequence (looked up)": "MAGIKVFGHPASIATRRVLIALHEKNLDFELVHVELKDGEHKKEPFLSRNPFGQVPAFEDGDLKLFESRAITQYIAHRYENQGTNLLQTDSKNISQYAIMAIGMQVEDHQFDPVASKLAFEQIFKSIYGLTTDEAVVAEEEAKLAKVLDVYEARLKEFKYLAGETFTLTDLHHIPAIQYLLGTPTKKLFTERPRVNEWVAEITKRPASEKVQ", "experiment": "co-IP; recombinant His–flag–MSRB7 and oxidized His–GSTs incubated with rabbit anti-flag antibody in IP buffer (15 mM HEPES pH 7.4, 1 mM EDTA, 1 mM DTT, 10 mM MgCl2, 30 mM KCl) 1 h at room temperature; Protein G–Sepharose; blot with mouse anti-His antibody", "conditions": "both partners purified"}, "oxidized His–GSTF3": {"biological_target": "T2, oxidized His–GSTF3 (A. thaliana, UniProt Q9SLM6 1-212, oxidized (positions not stated for this sample))", "T2 construct": "Glutathione S-transferase F3 (GSTF3), A. thaliana, locus At2g02930; cloned into pET-53-DEST; How it was oxidized is told only for the activity assay (0.5 mM HOCl, 40 min, stopped with 5 mM Met); also called recombinant GSTF3; MetO–GSTF3", "T2 sequence (looked up)": "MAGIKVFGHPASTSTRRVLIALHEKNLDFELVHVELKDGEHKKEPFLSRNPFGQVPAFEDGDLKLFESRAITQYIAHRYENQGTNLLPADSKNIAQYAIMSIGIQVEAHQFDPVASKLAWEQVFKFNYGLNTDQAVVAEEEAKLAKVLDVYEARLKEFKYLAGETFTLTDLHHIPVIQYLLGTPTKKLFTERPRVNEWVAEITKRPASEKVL", "experiment": "co-IP; recombinant His–flag–MSRB7 and oxidized His–GSTs incubated with rabbit anti-flag antibody in IP buffer (15 mM HEPES pH 7.4, 1 mM EDTA, 1 mM DTT, 10 mM MgCl2, 30 mM KCl) 1 h at room temperature; Protein G–Sepharose; blot with mouse anti-His antibody", "conditions": "both partners purified"}}}
{"binder": "His–flag–MSRB7 (enzyme, A. thaliana, UniProt Q8VY86 1-144, looked up, Methionine sulfoxide reductase B7 (MSRB7), A. thaliana, locus At4g21830; N terminus fused with a flag tag, cloned into pET-53-DEST; also called recombinant MSRB7; not shown: flag, N-terminal, kept) MAAMTAAAVPATGSFQKQDEEWRAVLSPEQFRVLRLKGTDKRGKGEFTKKFEEGTYSCAGCGTALYKSTTKFDSGCGWPAFFDAIPGAIKQTPEAGGRRMEITCAVCDGHLGHVFKGEGYSTPTDQRHCVNSVSLKFSSAGSSQ", "values": [{"measurement": "binding result", "setting": "oxidized His–GSTF2", "result": "binds"}, {"measurement": "binding result", "setting": "oxidized His–GSTF3", "result": "binds"}]}
